Measured values reported in the supplement of paper PMC9112550, “Optimization of the antimicrobial peptide Bac7 by deep mutational scanning” (BMC Biology, 2022).

test system: Escherichia coli TOP10; assay: shrunken log2 fold change of peptide-encoding DNA abundance (4.5 h post-induction vs induction); higher = less antimicrobial activity (less host growth inhibition); details: time post-induction: 4.5 h; library: site-saturation at positions 5, 18, 19, 20
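Further: peptides expressed intracellularly from a pBAD plasmid library in pooled LB shake-flask culture, induced with 0.3% L-arabinose, DNA abundance read by NGS, three biological replicates, DESeq2 with apeglm shrinkage.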

Sequence | shrunken log2 fold change
RRIRGRPPRLPRPRPRPRIWPRP | 0.836
RRIRPRPPRLPRPRPRPKDFPRP | -0.141
RRIRWRPPRLPRPRPRPYPLPRP | -0.0066
RRIRIRPPRLPRPRPRPIHSPRP | -0.302
RRIRWRPPRLPRPRPRPWNSPRP | 0.0293
RRIRVRPPRLPRPRPRPLMSPRP | 0.0187
RRIRCRPPRLPRPRPRPRHDPRP | -0.234
RRIRTRPPRLPRPRPRPFFTPRP | -0.118
RRIRWRPPRLPRPRPRPRVDPRP | 0.39
RRIRDRPPRLPRPRPRPEKGPRP | 0.71
RRIRKRPPRLPRPRPRPKTLPRP | 0.239
RRIRSRPPRLPRPRPRPSENPRP | -0.113
RRIRGRPPRLPRPRPRPCQQPRP | 0.0696
RRIRPRPPRLPRPRPRPKLKPRP | 0.105
RRIRNRPPRLPRPRPRPGRWPRP | 0.762
RRIRTRPPRLPRPRPRPNMFPRP | -0.315
RRIRFRPPRLPRPRPRPDTGPRP | -0.356
RRIRLRPPRLPRPRPRPARTPRP | 0.468
RRIRLRPPRLPRPRPRPARRPRP | 0.348
RRIRMRPPRLPRPRPRPCKMPRP | 0.0367

Sequence | shrunken log2 fold change
RRIRNRPPRLPRPRPRPWVFPRP | -0.221
RRIRARPPRLPRPRPRPSITPRP | 0.107
RRIRSRPPRLPRPRPRPNRPPRP | -0.0188
RRIRDRPPRLPRPRPRPIRRPRP | -0.00194
RRIRMRPPRLPRPRPRPVKSPRP | 0.023
RRIRIRPPRLPRPRPRPELGPRP | 0.0694
RRIRIRPPRLPRPRPRPFMWPRP | -0.792
RRIRIRPPRLPRPRPRPIFVPRP | -0.28
RRIRGRPPRLPRPRPRPYEQPRP | -0.157
RRIRWRPPRLPRPRPRPKNFPRP | -0.188
RRIRKRPPRLPRPRPRPYMAPRP | -0.0833
RRIRHRPPRLPRPRPRPIDWPRP | 0.0599
RRIRDRPPRLPRPRPRPSTRPRP | 0.152
RRIRARPPRLPRPRPRPRADPRP | 0.924
RRIRVRPPRLPRPRPRPFVTPRP | -0.206
RRIRQRPPRLPRPRPRPYLAPRP | -0.21
RRIRFRPPRLPRPRPRPDDTPRP | 0.0516
RRIRNRPPRLPRPRPRPNYDPRP | -0.222
RRIRPRPPRLPRPRPRPPHCPRP | 0.388
RRIRQRPPRLPRPRPRPGSIPRP | -0.218

Sequence | shrunken log2 fold change
RRIRARPPRLPRPRPRPLFRPRP | 0.881
RRIRFRPPRLPRPRPRPVGVPRP | 0.356
RRIRHRPPRLPRPRPRPGSTPRP | -0.681
RRIRLRPPRLPRPRPRPFFMPRP | -0.369
RRIRCRPPRLPRPRPRPNGDPRP | 0.105
RRIRRRPPRLPRPRPRPNRQPRP | -0.031
RRIRDRPPRLPRPRPRPCQEPRP | 0.211
RRIRPRPPRLPRPRPRPATCPRP | 1.55
RRIRSRPPRLPRPRPRPTGWPRP | 1.01
RRIRSRPPRLPRPRPRPHGQPRP | 0.24
RRIRKRPPRLPRPRPRPIVTPRP | 0.102
RRIRGRPPRLPRPRPRPKLIPRP | 0.479
RRIRDRPPRLPRPRPRPFDYPRP | -0.224
RRIRGRPPRLPRPRPRPQHSPRP | -0.0223
RRIRMRPPRLPRPRPRPISLPRP | 0.0356
RRIRGRPPRLPRPRPRPYVAPRP | 0.0436
RRIRTRPPRLPRPRPRPMCSPRP | -0.0861
RRIRARPPRLPRPRPRPCTYPRP | -0.173
RRIRCRPPRLPRPRPRPAASPRP | 0.246
RRIRARPPRLPRPRPRPCEAPRP | 0.762
